Literature values in patent US20260201061A1, “COMBINATION FOR TREATMENT AND PREVENTION OF CANCER” (Hummingbird Bioscience Pte. Ltd., priority 2022, published 2026).

B1: ISU104: anti-HER3 antibody, mainly binds to domain III of HER3 (antibody, chains of the INN, looked up, V domains shown)
VH: EVQLLESGGGLVQPGGSLRLSCAASGFTFSDYDMSWVRQAPGKGLEWVSTIDLDSGSIYYADSVQGRFTISRDNSKNTLYLQMNSLRAEDTAVYYCAKDLHMGPEGPFDYWGQGTLVTVSS
VL: QSVLTQPPSASGTPGQRVTISCSGSSSNIGSNSVSWYQQLPGTAPKLLIYSDNHRPSGVPDRFSGSKSGTSASLAISGLRSEDEADYYCQGWDTSLSGHVFGGGTKLTVL
B2: seribantumab: anti-HER3 antibody (antibody, chains of the INN, looked up)
heavy: EVQLLESGGGLVQPGGSLRLSCAASGFTFSHYVMAWVRQAPGKGLEWVSSISSSGGWTLYADSVKGRFTISRDNSKNTLYLQMNSLRAEDTAVYYCTRGLKMATIFDYWGQGTLVTVSSASTKGPSVFPLAPCSRSTSESTAALGCLVKDYFPEPVTVSWNSGALTSGVHTFPAVLQSSGLYSLSSVVTVPSSNFGTQTYTCNVDHKPSNTKVDKTVERKCCVECPPCPAPPVAGPSVFLFPPKPKDTLMISRTPEVTCVVVDVSHEDPEVQFNWYVDGVEVHNAKTKPREEQFNSTFRVVSVLTVVHQDWLNGKEYKCKVSNKGLPAPIEKTISKTKGQPREPQVYTLPPSREEMTKNQVSLTCLVKGFYPSDIAVEWESNGQPENNYKTTPPMLDSDGSFFLYSKLTVDKSRWQQGNVFSCSVMHEALHNHYTQKSLSLSPG
light: QSALTQPASVSGSPGQSITISCTGTSSDVGSYNVVSWYQQHPGKAPKLIIYEVSQRPSGVSNRFSGSKSGNTASLTISGLQTEDEADYYCCSYAGSSIFVIFGGGTKVTVLGQPKAAPSVTLFPPSSEELQANKATLVCLVSDFYPGAVTVAWKADGSPVKVGVETTKPSKQSNNKYAASSYLSLTPEQWKSHRSYSCRVTHEGSTVEKTVAPAECS

Molecular target: HER3 (Homo sapiens, UniProt P21860)

Row | Molecule | inhibition of binding of heregulin (HRG)/ligand to HER3
1 | Patritumab: anti-HER3 antibody [reference compound] | inhibit HER3-mediated signaling by blocking binding of heregulin (HRG) to HER3
2 | B1 | dose-dependent inhibition of binding of HRG to HER3
3 | B2 | inhibit HER3-mediated signaling by blocking binding of heregulin (HRG) to HER3
